Assay results published in the DeepSol protein solubility set.

Test: soluble on expression in E. coli; label from the status in PepcDB or PDB records

Sequence	soluble on expression in E. coli
MSLQGGIRFSDGIAAVADNEVITRRRLAEAVAEAKANLPKDAQISESELSRQVLMQLVNQSLIVQAGKRRNIQASEAEIDAVVAKNPALKNLSPAQRRDFADNIIAEKVRQQAVMQNSRVSEAEIDAFLEQAQKQGITLPEGAPLRQYRAQHILIKADSENAAVGAESTIRKIYGEARSGTDFSSLARQYSQDASAGNGGDLGWFADGVMVPAFEEAVHALKPGQVGAPVRTQFGWHIIKLNEVRDAGTPQERIRNSVRQYIFQQKAEQATVNLLRDLHSGAYVDIREGHHHHHH	soluble
MSLQGRRRKSLVFFPFFKINDKGASAMEEMVVVTPEKLEKLMKQKLEAAGLHSEHAEEVARHLTFADASGIHSHGAVRMDYYAERIAKGGITIDPELSFEKTGPSTAIFHGDNGVGQFVCNEALAAAVDLAKESGVAYVGVSQTSHSGTLSYYVKKAAEQGMVALSMCQSDPMVVPFGGTSNYFGTNPIAFAAPRAGHEPVVFDMATTVQAWGKILDARSRDVEIPDTWAVDEKGQPTTDPYEVRGLLPISGPKGYGLMMMVDVLAGSLLGLPFGKHVSSMYADLTEKRNLGQMFLVIDPSRFTDSERFKENINQMVEELHCVPTAEGFQQVYYPGEIGQLNYQKAMSEGIEIPQSIYDYLVSEIVHYDKYGGQGAFAKEGGSHHHHHH	soluble
MSLQKITVPTWAEINLDNLRFNLNNIKNLLEEDIKICGVIKADAYGHGAVEVAKLLEKEKVDYLAVARTAEGIELRQNGITLPILNLGYTPDEAFEDSIKNKITMTVYSLETAQKINEIAKSLGEKACVHVKIDSGMTRIGFQPNEESVQEIIELNKLEYIDLEGMFTHFATADEVSKEYTYKQANNYKFMSDKLDEAGVKIAIKHVSNSAAIMDCPDLRLNMVRAGIILYGHYPSDDVFKDRLELRPAMKLKSKIGHIKQVEPGVGISYGLKYTTTGKETIATVPIGYADGFTRIQKNPKVLIKGEVFDVVGRICMDQIMVRIDKDIDIKVGDEVILFGEGEVTAERIAKDLGTINYEVLCMISRRVDRVYMENNELVQINSYLLKEGHHHHHH	soluble
MSLQKKAMIIYNPAAGKNKFRKLLPDAEKILTEADFEVTLVPSTPAPKSTTFIAKQAAEAGFDVVIAAGGDGTVNEVVNGLMQVDTPPKLGVLPVGTTNDYARALNFAKNPLEALRIIAKQETIRVDIGKANETEFFINNAAGGKITEITYAVKESMKSKWGRLAYLFSGLTVLPKLSPVYVEIAYNDKIFKGEILLFFVNKSNSVGGMETLCPPAELNSGMFELLILKKVSPKTLFQLFASIKKGTHLSSPHVIHARTNKVTINSEADLNVSYDGVYGGKAPYTLEVIPEALEVFADTNRISSRLRGEGHHHHHH	soluble
MSLQLLAPGANTALANAHCSWNLESGTSSVFGEYAAVALLAVNEKRQPMGDPALLHQEQSWMEWSGGPQDVGCTLKLDRLPAGSDRVLLMVYVYAAMGPIRDFASLRLKVDANIEHRLDLRDNGEAAIIIGEFYKRNDQWKFRALSEGSAYGLSAFGRKIGLEVDDRHPRRPSGGSGGPAGGPRHESATGTAFVVGPAHVMTCAHVIEDMGVFYINSLEGRYKAEAVVIDRRNDIALLRVQGAPPLSAVTFREGQGCEPGDTVAVLGYPLASISGGGLQVTQGGISGLFGLHNDASLFQFTAPIQPGSSGSPLFDNGGAVIGMVTSTVPDGQNMNFAVKSALLMSFLQACRIDAPHARAERSYTTTEISRTFQSSLWLVEASREGHHHHHH	soluble
MSLQRLLQHSSNGNLADFCAGPAYSSYSTLTGSLTMDDNRRIQMLADTVATLPRGRKQLALTRSSSLSDFSWSQRKLVTVEKQDNETFGFEIQSYRPQNQNACSSEMFTLICKIQEDSPAHCAGLQAGDVLANINGVSTEGFTYKQVVDLIRSSGNLLTIETLNGTMILKRTELEAKLQVLKQTLKQKWVEYRSLQLQEHRLLHGDAANCPSLENMDLDELSLFGPLPGPGPALVDRNRLSSESSCKSWLSSMTMDSEDGYQTCVSEDSSRGAFSRQTSTDDECFIPKEGDDFLRRSSSRRNRSISNTSSGSMSPLWEGNLSSMFGTLPRKSRKGSVRKQLLKFIPGLHRAVEEEESRF	soluble
MSLQTIKIGLPVPLSGPYGAEAQDQVRNAELAVKQFNDAGGLDGRKAQLLVRDDRLNPAEAATRALELIEKDGVNFIVGGLSAATQLSINNVTRQRKKLYISISQSDAINEAADASPYTFHEALNPHMTTQAVGKYVFKPGMRVAFLTADYAYGHEMTRGFTEVARQQGAEVVGEVKHPLGASDYSAFLPRLKALNPDVLVFNNFGADNRISIKQAADFGMKRNIRFVTPILTYTARVSGGAATYQDVVGGTQYYWAIQDSVPSAKAFNAAFQAENNGRFPSDYGAMAYSAVKSLLLAVRDAGSTDTDEVAAALRKLKYDTYKGAQYYRGCDQQSVQSVLVIQSVGKDNAHPDEVFKLLHTEAPSEGHHHHHH	soluble
MSLRDEFSLIRSISPANVHQPSLHVGIGDDAAIYEGAPEMEEVLCVDTMVEEIHFRRDTLTPFQIGYKSLAINISDLAAMGATPKFYLVSIAVPPQWSDREIKTLYRGMAECAAPYRMDLIGGDTVSTNAKLVVTVTAVGHVPKGTRLLRQRARPGDVVFLTGTVGQSAAGLELLNKKGLHGPFTEEEELLVLAHQQPQPQVEAGHLFARSGYRIALNDVSDGVASEANELAEASKVKLVLKANTIPLHPAMETFSKEQQLEWALFGGEDFQLIGTAAVDAFASLQQLAIQRGISLTEIGYVEAGSPVVELEEGTARSVLKKSGYNHFAKEGHHHHHH	soluble
MSLRDLLLIDHPLCQAVFSRQGAQLLHFQPQGERPLLWCAGEWPALSSAPVRGGIPVCWPWFGSHPNGSEWPQQGWARQREWRLLDAYADESKVVVSWQLDLEDWHVRLDARLGQRLELELCSYHEEDDDCLFSFALQPYWRVGALSRVVVHGMELESARGQRGASRIPGTWIPRGAVKQVLYHPGSLVLEDGGWNRRLRIDKNVSAGSVIWHPGSRPVEQVEPGEAERFLCIGAAGYRPGGLILAPGERMRLSLAAGLQEGHHHHHH	not soluble
MSLREDLLEETRKSCQKKIDELEDALSELKKETSQKDHHIKQLEEDNNSNIEWYQNKIEALKKDYESVITSVDSKQTDIEKLQYKVKSLEKEIEEDKIRLHTYNVMDETINDDSLRKELEKSKINLTDAYSQIKEYKDLYETTSQSLQQTNSKLDESFKDFTNQIKNLTDEKTSLEDKISLLKEQMFNLNNELDLQKKGMEKEKADFKKRISILQNNNKEVEAVKSEYESKLSKIQNDLDQQTIYANTAQNNYEQELQKHADVSKTISELREQLHTYKGQVKTLNLSRDQLENALKENEKSWSSQKESLLEQLDLSNSRIEDLSSQNKLLYDQIQIYTAADKEVNNSTNGPGLNNILITLRRERDILDTKVTVAERDAKMLRQKISLMDVELQDARTKLDNSRVEKENHSSIIQQHDDIMEKLNQLNLLRESNITLRNELENNNNKKKELQSELDKLKQNVAPIESELTALKYSMQEKEQELKLAKEEVHRWKKRSQDILEKHEQLSSSDYEKLESEIENLKEELENKERQGAEAEEKFNRLRRQAQERLKTSKLSQDSLTEQVNSLRDAKNVLENSLSEANARIEELQNAKVAQGNNQLEAIRKLQEDAEKASRELQAKLEESTTSYESTINGLNEEITTLKEEIEKQRQIQQQLQATSANEQNDLSNIVESMKKSFEEDKIKFIKEKTQEVNEKILEAQERLNQPSNINMEEIKKKWESEHEQEVSQKIREAEEALKKRIRLPTEEKINKIIERKKEELEKEFEEKVEERIKSMEQSGEIDVVLRKQLEAKVQEKQKELENEYNKKLQEELKDVPHSSHISDDERDKLRAEIESRLREEFNNELQAIKKKSFDEGKQQAMMKTTLLERKLAKMESQLSETKQSAESPPKSVNNVQNPLLGLPRKIEENSNSPFNPLLSGEKLLKLNSKSSSGGFNPFTSPSPNKHLQNDNDKRESLANKTDPPTHLEPSFNIPASREGHHHHHH	soluble
MSLRFDFHTHTVFSDGELIPAELVRRARVLKHRAIAITDHADFSNYKELIEKTTIAKEELKKYWDDIIVIVGVELTHIPPKSIPKMAKKAKDLGAEIVVVHGETVVEPVEEKTNYYASISEDVDILAHPGFIDKETAENLKENDIFVEITSRRGHNITNGYVANIAREFGLKTLINTDTHAPEDLIDDEFAKKVGLGAGLTNKELENTLLHYPKELLKREGHHHHHH	soluble
MSLRFGIGYSATMGVRPNMEDVITFQTYPNDQHLFGLFDGHQGNVAAATSAICLHNELLQNAVNAPDDQLPAAITNCYTAVNQKLKMIGTRDGCTAISAFIRKNKCYTVGIGDSRIVLVKKNSSKRLTVDYKPTMRSEYERLRKCGLTVNSEGRIGRKLAVARTLGDFWCEGPGLYVPPDVSSFEINEEEDLALIIACDGVWDVIQDDDAAEIVRNSENAQDAATTLRNVAFALGSKDNISAMIVFFDSKEGHHHHHH	soluble
MSLRGESSGLMAYKAEDIYFTLFNGLHGSAHGHASTGGFTLQLQGDDLFSDSGRYSYVNKSERLQLKECASHNTMFIAENPHTLVSDTWGYDKLPTPLFQQIKELSVGFFAECGWLDKADQNPMIFERSFIYLKSINSVVIIDSFAGQKETEITSTYNLAPSINCQKEAHRFALTTNKHKYTLLFAGGQTQQSVAKGSEIYNQLNEHPRLSNKFCYKTGKEIQATVISPLEDIQITPIKVSQTGENEQFCQAKGFRIIAGSEKFDLFVMREDIVKGNKLLVSEYGQFFYGRLVLIDQKEAKIRIKEGHHHHHH	soluble
MSLRGIRLQQPAGLASLSSVALPDPGQPAAGQIRVRLHASSLNFHDLGIVSGQMPTADGRIPMSDGAGVVEAVGEAVSDFAVGDHVVSTFFPQWLDGEPLHAGFATTPGDGVDGYARSAVVAAAQAFTHAPRGYSHAEAATLTTAGVTAWRALVVNGRIKAGDTVLVLGTGGVSIFALQFAKAMGAMVIVTSSSDQKLETARTLGADHCINYRQHTEWAAQVLEITNGRGVDHVVEVGGPGTLAQSIKAARVGGHIALIGVLTGAAGPVPTAEMMGRQQRLQGLVVGSRRHQQELVRALDGLPLRPVIDRSFALEDIAEAFALQHAGGHLGKIVLEFEGHHHHHH	soluble
MSLRHDVILVLLDGLNHSVARDCMGHLQALCGAGRGQSYRLECELPSLSRPLYECILTGVPPIDSGILHNDVVRLSQEQSLFHYARAAGLSTAAAAYHWVSELYNRAPFDPARDRHTDDSALPIQRGHFYWSDHYPDSHLFADAESLRRRHAPNFMLVHSMNIDDAGHRHGLASPAYRNAARRADALLSEYLHQWLAAGYQVAITADHGMNEDRSHGGILEEEREVPLFVFGDAFSRDDLAQPLQTDLCGTLCEILGAAHDKPVCREEGHHHHHH	not soluble
MSLRILVNGLLPLDSGKTTFSLSIIRLFNQVGIRLFPFKPIAGHNAWYSFNTLIRSEELGILVGNDALKYYDETKYDIRRINPFAVLFVPIDLEKISYNVSLYNMIMEYGFPYLIRLSDCINGTDQYFVNSSADIYVPKSMLKFTRNLALKFNAKLYDKMREIIDASPQLVDNCTIDVFRNYENVIIESYNDSASPTYNSTNVDYVFTVSPTKAFLIKGQEFKKALSLFSIPPWNVRVSTLMKYLKIGKSFEIDVGERVAKDEILDILLKSEGHHHHHH	not soluble
MSLRITRLTVFHLDLPLAKPYWLSGGRLKFDRLDSTYLRIDTDEGVTGWGEGCPWGHSYLPAHGPGLRAGIATLAPHLLGLDPRSLDHVNRVMDLQLPGHSYVKSPIDMACWDILGQVAGLPLWQLLGGEAATPVPINSSISTGTPDQMLGLIAEAAAQGYRTHSAKIGGSDPAQDIARIEAISAGLPDGHRVTFDVNRAWTPAIAVEVLNSVRARDWIEQPCQTLDQCAHVARRVANPIMLDECLHEFSDHLAAWSRGACEGVKIKPNRVGGLTRARQIRDFGVSVGWQMHIEDVGGTALADTAALHLAASTPEANRLASWLGHAHLADDPIPGQGARNRDGLATPPSAPGLGVIPDPEALGRPVASYDEGHHHHHH	soluble
MSLRKFWHVGINVTDMDKSIDFYRRIGFEVVQDREVEDSNLARAFMVEGASKLRFAHLRLNDSPDEAMLDLIEWRDARSEGRAQSDLVHPGLCRFSILTDDIDAEYARLADDGVQFLHAPQTIMGPDGVKGWRLLFARDPDGTLFHFAELVGQAATEGHHHHHH	not soluble
